According to paper PMC12355088, “Structural analysis of TRIM family PRYSPRY domains and its implications for E3-ligand design” (Journal of Structural Biology: X, 2025):

Biological target: the molecule itself
Assay: SEC; Superdex-75 column, elution compared with marker proteins (BSA, ovalbumin, carbonic anhydrase, ribonuclease A)

B1: TRIM36 PRYSPRY domain (domain or fragment, human)
chain: TPPAPVFSFLFDEKCGYNNEHLLLNLKRDRVESRAGFNLLLAAERIQVGYYTSLDYIIGDTGITKGKHFWAFRVEPYSYLVKVGVASSDKLQEWLRSPRDAVSPRYEQDSGHDSGSEDACFDSSQPFTLVTIGMQKFFIPKSPTSSNEPENRVLPMPTSIGIFLDCDKGKVDFYDMDQMKCLYERQVDCSHTLYPAFALMGSGGIQLEEPITAKYLEYQEDM
notes: PRYSPRY domain of human TRIM36, with an additional C-terminal helix; theoretical MW of the dimer 52.4 kDa; Cloned into pNIC-CTH0; also called TRIM36 domain
  stoichiometry N: 2
